Each block holds one molecule with its values, some of them ahead of it.
Tests used:
PQQ domain of CcSDH = target: T1, PQQ domain of CcSDH (Coprinopsis cinerea, UniProt A0A0A8IDB7); assay: isothermal titration calorimetry, single-site model; type: binding
T1 construct: gene PDH; PQQ dehydrogenase domain only: N-terminal 221 residues (heme domain) and last 77 C-terminal residues (with CBM1) removed; begins at T222 (primer encodes TFVSC); secreted from Pichia pastoris
T1 sequence (A0A0A8IDB7 240-649): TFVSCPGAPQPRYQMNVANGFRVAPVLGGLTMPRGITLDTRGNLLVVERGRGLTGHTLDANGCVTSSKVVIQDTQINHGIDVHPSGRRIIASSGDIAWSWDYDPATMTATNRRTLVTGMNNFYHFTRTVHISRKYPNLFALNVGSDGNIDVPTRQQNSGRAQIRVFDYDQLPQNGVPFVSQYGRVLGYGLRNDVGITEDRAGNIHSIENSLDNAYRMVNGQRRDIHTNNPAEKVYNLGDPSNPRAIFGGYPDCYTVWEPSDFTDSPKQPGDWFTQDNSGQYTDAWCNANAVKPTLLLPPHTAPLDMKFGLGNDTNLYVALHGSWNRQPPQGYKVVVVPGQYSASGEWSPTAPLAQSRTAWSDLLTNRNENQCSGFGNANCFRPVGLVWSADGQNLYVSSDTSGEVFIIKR

purified protein = substrate: O=CC(=O)[C@@H](O)[C@H](O)[C@H](O)CO; assay: purified protein; type: biochemical, Coprinopsis cinerea; details: 50 mM Tris-HCl pH 8.5, 1 µM PQQ, 1 mM CaCl2, 50 µM cytochrome c, 30 °C, background reduction by D-glucosone subtracted

Kd (PQQ domain of CcSDH): 1.11 nM
Molecule: O=C(O)c1cc(C(=O)O)c2c(n1)C(=O)C(=O)c1cc(C(=O)O)[nH]c1-2 [Pyrroloquinoline quinone]

B1: CcSDH (C. cinerea sugar dehydrogenase), full-length recombinant (Coprinopsis cinerea) (protein)
chain: QGSPTQWYDSITGVTFSRFYQQDTDASWGYIFPSASGGQAPDEFIGLFQGPASAGWIGNSLGGSMRNNPLLVGWVDGSTPRISARWATDYAPPSIYSGPRLTILGSSGTNGNIQRIVYRCQNCTRWTGGAGGIPTTGSAVFGWAFHSTTKPLTPSDPSSGLYRHSHAAQYGFDIGNARTTLYDYYLQQLTNAPPLSGGAPTQPPTQQPPTTTAPPPPPPSSTFVSCPGAPQPRYQMNVANGFRVAPVLGGLTMPRGITLDTRGNLLVVERGRGLTGHTLDANGCVTSSKVVIQDTQINHGIDVHPSGRRIIASSGDIAWSWDYDPATMTATNRRTLVTGMNNFYHFTRTVHISRKYPNLFALNVGSDGNIDVPTRQQNSGRAQIRVFDYDQLPQNGVPFVSQYGRVLGYGLRNDVGITEDRAGNIHSIENSLDNAYRMVNGQRRDIHTNNPAEKVYNLGDPSNPRAIFGGYPDCYTVWEPSDFTDSPKQPGDWFTQDNSGQYTDAWCNANAVKPTLLLPPHTAPLDMKFGLGNDTNLYVALHGSWNRQPPQGYKVVVVPGQYSASGEWSPTAPLAQSRTAWSDLLTNRNENQCSGFGNANCFRPVGLVWSADGQNLYVSSDTSGEVFIIKRMSGPIVQPPITQPPITTSPPTPTTPPVVQPPTTVAPPQASQTLWGQCGGQGWTGPTLCPANSVCRESNQWYSQCVPA
notes: mature protein without 18-residue signal peptide (726-aa ORF); AA8 cytochrome b + PQQ dehydrogenase + CBM1 domains; secreted from Pichia pastoris (pPICZalpha), glycosylated, 98 kDa on SDS-PAGE; genome locus Chromosome 6:1274274-1277156
Km (purified protein): 7.9 (±0.3) mM | kcat (purified protein): 74.1 ± 1.4 s⁻¹ | kcat/Km (purified protein): 9370 M⁻¹ s⁻¹

Reference: publication PMC4133262, “Discovery of a Eukaryotic Pyrroloquinoline Quinone-Dependent Oxidoreductase Belonging to a New Auxiliary Activity Family in the Database of Carbohydrate-Active Enzymes” (PLoS ONE, 2014)
